Assay results from PMC9654219, “Molecular Mechanism of Sirtuin 1 Modulation by the AROS Protein” (International Journal of Molecular Sciences, 2022).

T1: AROS 1–89 (N-terminus of AROS) (human, UniProt Q86WX3 1-89)
T1 construct: human AROS (RPS19BP1), residues 1-89; Preparation is told for 'human AROS constructs' in general
T1 sequence (looked up): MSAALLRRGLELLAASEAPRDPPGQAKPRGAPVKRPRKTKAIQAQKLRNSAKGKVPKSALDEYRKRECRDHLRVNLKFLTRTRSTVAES

T2: Sirt3 residues 118–399 (human, UniProt Q9NTG7 118-399)
T2 construct: human Sirt3, residues 118-399 (pVFT3S); source: E. coli BL21 (DE3) CodonPlus, purified (Ni beads, TEV cleavage, ion exchange, S200 gel filtration)
T2 sequence (looked up): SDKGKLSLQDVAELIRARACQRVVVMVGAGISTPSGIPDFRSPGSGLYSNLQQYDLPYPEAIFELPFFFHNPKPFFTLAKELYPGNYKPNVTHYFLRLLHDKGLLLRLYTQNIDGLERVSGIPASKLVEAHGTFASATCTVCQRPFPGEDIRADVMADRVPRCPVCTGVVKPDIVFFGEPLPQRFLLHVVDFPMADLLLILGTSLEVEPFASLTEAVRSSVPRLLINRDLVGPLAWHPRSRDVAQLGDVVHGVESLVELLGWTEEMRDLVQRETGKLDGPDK

T3: full-length Sirt1 (human, UniProt Q96EB6 1-747)
T3 sequence (looked up): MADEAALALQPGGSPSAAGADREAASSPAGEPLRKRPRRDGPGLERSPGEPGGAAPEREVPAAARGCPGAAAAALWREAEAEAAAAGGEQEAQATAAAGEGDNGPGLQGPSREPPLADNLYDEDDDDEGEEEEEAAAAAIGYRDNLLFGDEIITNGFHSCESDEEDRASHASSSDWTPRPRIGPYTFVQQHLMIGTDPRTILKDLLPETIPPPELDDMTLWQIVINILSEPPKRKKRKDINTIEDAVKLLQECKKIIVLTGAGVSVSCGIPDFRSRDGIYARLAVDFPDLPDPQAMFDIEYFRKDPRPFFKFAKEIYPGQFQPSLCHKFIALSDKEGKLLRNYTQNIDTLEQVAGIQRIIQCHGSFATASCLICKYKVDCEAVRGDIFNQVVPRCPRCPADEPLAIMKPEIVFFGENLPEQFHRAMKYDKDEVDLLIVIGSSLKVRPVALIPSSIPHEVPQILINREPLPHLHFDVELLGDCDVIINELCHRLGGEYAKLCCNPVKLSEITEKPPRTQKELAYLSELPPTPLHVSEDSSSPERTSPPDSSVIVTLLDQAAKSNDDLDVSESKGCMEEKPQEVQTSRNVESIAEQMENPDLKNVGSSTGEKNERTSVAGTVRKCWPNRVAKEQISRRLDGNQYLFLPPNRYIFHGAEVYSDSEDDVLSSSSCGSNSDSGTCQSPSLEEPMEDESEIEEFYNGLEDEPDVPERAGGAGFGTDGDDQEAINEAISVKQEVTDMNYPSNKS

T4: Sirt5 residues 34–302 (human, UniProt Q9NXA8 34-302)
T4 construct: human Sirt5, residues 34-302 (pET151/D-TOPO); source: E. coli BL21 (DE3) CodonPlus, purified (Ni beads, TEV cleavage, S200 gel filtration)
T4 sequence (looked up): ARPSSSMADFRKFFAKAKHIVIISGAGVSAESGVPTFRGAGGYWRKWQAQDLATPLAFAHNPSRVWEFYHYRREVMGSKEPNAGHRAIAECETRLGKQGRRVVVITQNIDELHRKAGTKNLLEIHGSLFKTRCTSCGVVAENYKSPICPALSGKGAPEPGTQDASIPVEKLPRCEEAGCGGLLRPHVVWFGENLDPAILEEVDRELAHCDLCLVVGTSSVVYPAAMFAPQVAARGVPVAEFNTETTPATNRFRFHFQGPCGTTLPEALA

B1: mini-Sirt1ex687 (domain or fragment)
chain: GPYTFVQQHLMIGTDPRTILKDLLPETIPPPELDDMTLWQIVINILSEPPKRKKRKDINTIEDAVKLLQECKKIIVLTGAGVSVSCGIPDFRSRDGIYARLAVDFPDLPDPQAMFDIEYFRKDPRPFFKFAKEIYPGQFQPSLCHKFIALSDKEGKLLRNYTQNIDTLEQVAGIQRIIQCHGSFATASCLICKYKVDCEAVRGDIFNQVVPRCPRCPADEPLAIMKPEIVFFGENLPEQFHRAMKYDKDEVDLLIVIGSSLKVRPVALIPSSIPHEVPQILINREPLPHLHFDVELLGDCDVIINELCHRLGGEYAKLCCNPVGGGSGGGSQYLFLPPNRYIFHGAEVYSDSEDDVLSSSSCGSNSDSGTCQSPSLEE
B2: Sirt1 144–230 (N-terminus and SBD) (domain or fragment, human, UniProt Q96EB6 144-230, looked up)
chain: DNLLFGDEIITNGFHSCESDEEDRASHASSSDWTPRPRIGPYTFVQQHLMIGTDPRTILKDLLPETIPPPELDDMTLWQIVINILSE
notes: also called Sirt1-SBD
B3: active regulator of Sirt1 (AROS), full length, residues 1-136 (natural protein, human, UniProt Q86WX3 1-136, looked up)
chain: MSAALLRRGLELLAASEAPRDPPGQAKPRGAPVKRPRKTKAIQAQKLRNSAKGKVPKSALDEYRKRECRDHLRVNLKFLTRTRSTVAESVSQQILRQNRGRKACDRPVAKTKKKKAEGTVFTEEDFQKFQQEYFGS
notes: human AROS (RPS19BP1), residues 1-136, with N-terminal hexahistidine tag and TEV protease cleavage site (modified pET19b); No tag removal is described; 15N-labelled for the NMR titrations; In MST either AROS or Sirt1 carried Cy5 on lysines; also called AROS 1–136; full-length AROS; not shown: His6, N-terminal, kept

How the values were obtained:
mini-Sirt1ex687 = target: B1; test: MST; either AROS or Sirt1 labelled with Cy5-NHS ester (40–120 nM labelled protein); 50 mM Na2HPO4/NaH2PO4 pH 7.0, 250 mM NaCl, 2 mg/mL BSA, 20 °C; Monolith NT.115; conditions: both partners purified
[1] = target: B3; test: as above; conditions: both partners purified
[2] = target: T1, AROS 1–89 (N-terminus of AROS); test: as above; conditions: both partners purified
[3] = target: B2; test: as above; conditions: both partners purified
Sirt3 residues 118–399 = target: T2, Sirt3 residues 118–399; test: crystal structure; 10 mg/mL Sirt3 pre-incubated with 1 mM AROS peptide 62–71 and 1 mM AROS peptide 96–109; 12% PEG 8.000, 0.1 M HEPES pH 7.5, 0.2 M NaCl, 20 °C; 3.27 Å; conditions: both partners purified
full-length Sirt1 = target: T3, full-length Sirt1; test: cell-based or functional assay
Sirt5 residues 34–302 = target: T4, Sirt5 residues 34–302; test: cross-linking; 2 mM DSSO, 50 µM of each protein, 50 mM NaHPO4 pH 7, 250 mM NaCl, RT; SDS-PAGE; bands analysed by LC-ESI-MS/MS; conditions: both partners purified

Kd (mini-Sirt1ex687) [µM] | Kd [2] [µM] | Kd [3] [µM] | Binder | other results
151 ± 31 |  |  | RQNRGRKACDRPVA (human AROS (RPS19BP1), residues 96-109; also called AROS96-109; AROS 96–109; source: synthetic peptide, bought: GL Biochem) [AROS peptide 96-109] | 
 | 65 ± 9 |  | B1 | Kd [1]: 1300 ± 200 nM
 | 209 ± 67 |  | B2 | 
86 ± 16 |  | 166 ± 24 | EYRKRECRDH (human AROS (RPS19BP1), residues 62-71; also called AROS62-71; AROS 62–71; source: synthetic peptide, bought: GL Biochem) [AROS peptide 62-71] | binding result (Sirt3 residues 118–399): binds
 |  |  | B3 | increase of KM for the acetylated FdL substrate peptide with 40 µM AROS (FdL activity assay, substrate titration) (full-length Sirt1): ~3 fold; binding result (Sirt5 residues 34–302): binds
721 ± 310 |  | 579 ± 102 | TRTRSTVAESVS (human AROS (RPS19BP1), residues 80-91; also called AROS80-91; AROS 80–91; source: synthetic peptide, bought: GL Biochem) [AROS peptide 80-91] | 
